Assay results published in patent publication US20210139548A1 (published 2021).
*1 amine or outer side, *2 acyl side, *3 side chain or, on linkers, in order; H or OH if unused. Side-chain parts run from the residue outwards. The star is where a group is joined. C18 diacid = O=C(O)CCCCCCCCCCCCCCCCC(=O)*; γGlu = O=C(O)[C@H](CCC(=O)[*:2])N[*:1]; Isovaleryl = CC(C)CC(=O)*; AEEA = NCCOCCOCC(=O)O

T1: human neuropeptide Y2 receptor (human, UniProt P49146 1-381)
T1 construct: whole, on cells; also called hNPY2 receptor; hNPY2-R
T1 sequence (looked up): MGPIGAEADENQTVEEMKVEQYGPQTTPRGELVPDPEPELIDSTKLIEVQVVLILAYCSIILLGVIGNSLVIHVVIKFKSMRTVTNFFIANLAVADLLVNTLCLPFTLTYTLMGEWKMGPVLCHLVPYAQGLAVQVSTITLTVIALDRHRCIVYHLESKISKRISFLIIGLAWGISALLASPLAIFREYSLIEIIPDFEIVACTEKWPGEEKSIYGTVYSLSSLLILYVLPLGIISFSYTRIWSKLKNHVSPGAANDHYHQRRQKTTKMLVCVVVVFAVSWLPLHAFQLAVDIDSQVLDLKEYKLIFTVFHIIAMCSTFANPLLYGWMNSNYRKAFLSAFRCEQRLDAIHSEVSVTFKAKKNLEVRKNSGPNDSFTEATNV

B1: Compound 13 (peptide)
peptide: Isovaleryl-APEK([AEEA-AEEA-γGlu-C18 diacid])PEEDAAPEELQQYYVSLRHYYNWLTRQRY-NH2
SMILES: CC(C)CC(=O)N[C@@H](C)C(=O)N1CCC[C@H]1C(=O)N[C@@H](CCC(=O)O)C(=O)N[C@@H](CCCCNC(=O)COCCOCCNC(=O)COCCOCCNC(=O)CC[C@H](NC(=O)CCCCCCCCCCCCCCCCC(=O)O)C(=O)O)C(=O)N1CCC[C@H]1C(=O)N[C@@H](CCC(=O)O)C(=O)N[C@@H](CCC(=O)O)C(=O)N[C@@H](CC(=O)O)C(=O)N[C@@H](C)C(=O)N[C@@H](C)C(=O)N1CCC[C@H]1C(=O)N[C@@H](CCC(=O)O)C(=O)N[C@@H](CCC(=O)O)C(=O)N[C@@H](CC(C)C)C(=O)N[C@@H](CCC(N)=O)C(=O)N[C@@H](CCC(N)=O)C(=O)N[C@@H](Cc1ccc(O)cc1)C(=O)N[C@@H](Cc1ccc(O)cc1)C(=O)N[C@H](C(=O)N[C@@H](CO)C(=O)N[C@@H](CC(C)C)C(=O)N[C@@H](CCCNC(=N)N)C(=O)N[C@@H](Cc1c[nH]cn1)C(=O)N[C@@H](Cc1ccc(O)cc1)C(=O)N[C@@H](Cc1ccc(O)cc1)C(=O)N[C@@H](CC(N)=O)C(=O)N[C@@H](Cc1c[nH]c2ccccc12)C(=O)N[C@@H](CC(C)C)C(=O)N[C@H](C(=O)N[C@@H](CCCNC(=N)N)C(=O)N[C@@H](CCC(N)=O)C(=O)N[C@@H](CCCNC(=N)N)C(=O)N[C@@H](Cc1ccc(O)cc1)C(N)=O)[C@@H](C)O)C(C)C
B2: Compound 14 (peptide)
peptide: Isovaleryl-APEK([AEEA-AEEA-γGlu-C18 diacid])PEADATPEELQRYYVSLRHYYNWLTRQRY-NH2
SMILES: CC(C)CC(=O)N[C@@H](C)C(=O)N1CCC[C@H]1C(=O)N[C@@H](CCC(=O)O)C(=O)N[C@@H](CCCCNC(=O)COCCOCCNC(=O)COCCOCCNC(=O)CC[C@H](NC(=O)CCCCCCCCCCCCCCCCC(=O)O)C(=O)O)C(=O)N1CCC[C@H]1C(=O)N[C@@H](CCC(=O)O)C(=O)N[C@@H](C)C(=O)N[C@@H](CC(=O)O)C(=O)N[C@@H](C)C(=O)N[C@H](C(=O)N1CCC[C@H]1C(=O)N[C@@H](CCC(=O)O)C(=O)N[C@@H](CCC(=O)O)C(=O)N[C@@H](CC(C)C)C(=O)N[C@@H](CCC(N)=O)C(=O)N[C@@H](CCCNC(=N)N)C(=O)N[C@@H](Cc1ccc(O)cc1)C(=O)N[C@@H](Cc1ccc(O)cc1)C(=O)N[C@H](C(=O)N[C@@H](CO)C(=O)N[C@@H](CC(C)C)C(=O)N[C@@H](CCCNC(=N)N)C(=O)N[C@@H](Cc1c[nH]cn1)C(=O)N[C@@H](Cc1ccc(O)cc1)C(=O)N[C@@H](Cc1ccc(O)cc1)C(=O)N[C@@H](CC(N)=O)C(=O)N[C@@H](Cc1c[nH]c2ccccc12)C(=O)N[C@@H](CC(C)C)C(=O)N[C@H](C(=O)N[C@@H](CCCNC(=N)N)C(=O)N[C@@H](CCC(N)=O)C(=O)N[C@@H](CCCNC(=N)N)C(=O)N[C@@H](Cc1ccc(O)cc1)C(N)=O)[C@@H](C)O)C(C)C)[C@@H](C)O

Molecular target: T1, human neuropeptide Y2 receptor
Experiment: radioligand competition (125I-PYY(1-36)), hNPY2R membranes
Experimental: The filtration RLB assay was carried out in 96-well plates in a final volume of 100 μl per well. Freeze-dried test peptides were dissolved in 100% dimethyl sulfoxide (DMSO) to stock solutions of 1 mM and serial dilutions were performed in assay buffer (50 mM HEPES, 5 mM MgCl₂, 1 mM CaCl₂, pH 7.4) containing 0.2% ovalbumin. […] Next, 80 μL membranes (HTS066M, ChemiSCREEN™ Human Neuropeptide Y2 Receptor Membrane Preparation, CHEMICON) were added to each well to give a final protein concentration of 0.5 μg/well. The plates were sealed and incubated at room temperature for 2 hours in a plate shaker set at 400 rpm. The incubation was stopped by vacuum filtration onto 0.5% poly-ethylene amine (PEI) presoaked GF/C filters using a 96-well FilterMate™ harvester (Perkin Elmer) followed by four washes with 300 μl/well ice-cold wash buffer (50 mM HEPES, 500 mM NaCl, pH7.4). Filter plates were then dried for 60 min at room temperature and the bottom of the plates was sealed with backing tape UniFilter-96. Finally, 50 μl/well scintillation counter cocktail (Microscint20, Packard) was added and the radioactivity was counted in the Packard TopCount NXT scintillation counter. IC₅₀ values (the half maximal inhibitory concentration of the agonist) were calculated by nonlinear regression analysis of sigmoidal dose-response curves.

Binder | Ki [nM]
B1 | 1.29
B2 | 0.31
